Measured values taken from patent publication US20220389118A1 (Chugai, published 2022).
Numbering of substitutions follows the chain as printed.

T1: human FcγRIIa type R extracellular domain with C-terminal His tag (human, UniProt P12318 34-217)
T1 construct: extracellular domain; also called FcγRIIaR; FcγRIIa(R)
T1 sequence (looked up): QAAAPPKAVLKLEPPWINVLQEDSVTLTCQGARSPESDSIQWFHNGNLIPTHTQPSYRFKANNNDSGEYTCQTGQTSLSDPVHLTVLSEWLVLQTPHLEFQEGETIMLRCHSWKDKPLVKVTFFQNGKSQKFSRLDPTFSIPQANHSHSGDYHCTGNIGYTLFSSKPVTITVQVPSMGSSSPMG

T2: human FcγRIIa type H extracellular domain with C-terminal His tag (human, UniProt P12318 34-217)
T2 construct: extracellular domain; also called FcγRIIaH; FcγRIIa(H)
T2 sequence (looked up): T1 sequence (looked up) with R134H

T3: human FcγRIIb extracellular domain with C-terminal His tag (human, UniProt P31994 43-217)
T3 construct: extracellular domain
T3 sequence (looked up): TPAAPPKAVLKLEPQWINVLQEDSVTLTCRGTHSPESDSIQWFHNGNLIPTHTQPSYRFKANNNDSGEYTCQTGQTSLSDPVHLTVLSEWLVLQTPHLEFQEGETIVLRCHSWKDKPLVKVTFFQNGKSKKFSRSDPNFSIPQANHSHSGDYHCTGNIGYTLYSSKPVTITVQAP

T4: human FcγRIIb extracellular domain with C-terminal His tag (human, UniProt P31994 43-217)
T4 construct: extracellular domain; also called FcgRIIb
T4 sequence (looked up): T3 sequence (looked up)

B1: IL6R-BP511/IL6R-L (antibody, human IgG1, kappa)
heavy: QVQLQESGPGLVKPSETLSLTCAVSGHSISHDHAWSWVRQPPGEGLEWIGFISYSGITNYNPSLQGRVTISRDNSKNTLYLQMNSLRAEDTAVYYCARSLARTTAMDYWGEGTLVTVSSASTKGPSVFPLAPSSKSTSGGTAALGCLVKDYFPEPVTVSWNSGALTSGVHTFPAVLQSSGLYSLSSVVTVPSSSLGTQTYICNVNHKPSNTKVDKKVEPKSCDKTHTCPPCPAPELLGDDSVFLFPPKPKDTLMISRTPEVTCVVIDVAEEDGPVKFNWYVDGVEVHNAKTKPREEQDNSTYRVVSVLTVLHQDWLNGKEYKCKVSNKALPRPIEKTISKAKGQPREPQVYTLPPSRDELTKNQVSLTCLVKGFYPSDIAVEWESNGQPENNYKTTPPVLDSDGSFFLYSKLTVDKSRWQQGNVFSCSVMHEALHNHYTQESLSLSP
light: not shown
notes: copies: 2 + 2
B2: IL6R-BP503/IL6R-L (antibody, human IgG1, kappa)
heavy: B1 heavy with E235D, P274E, A329G, P398M
light: not shown
notes: copies: 2 + 2
B3: IL6R-BP498/IL6R-L (antibody, human IgG1, kappa)
heavy: B1 heavy with E235D, P274E, D298Y, P398L
light: not shown
notes: copies: 2 + 2
B4: IL6R-BP487/IL6R-L (antibody, human IgG1, kappa)
heavy: B1 heavy with E235D, P274E, D298Y, P398M
light: not shown
notes: copies: 2 + 2
B5: IL6R-BP510/IL6R-L (antibody, human IgG1, kappa)
heavy: B1 heavy with D298Y
light: not shown
notes: copies: 2 + 2
B6: IL6R-BP497/IL6R-L (antibody, human IgG1, kappa)
heavy: B1 heavy with E235D, P274E, D298Y, A329G
light: not shown
notes: copies: 2 + 2
B7: IL6R-BP491/IL6R-L (antibody, human IgG1, kappa)
heavy: B1 heavy with P274E
light: not shown
notes: also called IL6R-491/IL6R-L; copies: 2 + 2
B8: IL6R-BP489/IL6R-L (antibody, human IgG1, kappa)
heavy: B1 heavy with E235D, P274E, P398M
light: not shown
notes: copies: 2 + 2
B9: IL6R-BP502/IL6R-L (antibody, human IgG1, kappa)
heavy: B1 heavy with E235D, P274E, A329G
light: not shown
notes: copies: 2 + 2
B10: IL6R-BP533/IL6R-L (antibody, human IgG1, kappa)
heavy: B1 heavy with E235D, A269G, P274E, P398L
light: not shown
notes: copies: 2 + 2
B11: IL6R-BP554/IL6R-L (antibody, human IgG1, kappa)
heavy: B1 heavy with P274D, D298Y
light: not shown
notes: copies: 2 + 2
B12: IL6R-BP496/IL6R-L (antibody, human IgG1, kappa)
heavy: B1 heavy with E235D, P274E, R332A
light: not shown
notes: copies: 2 + 2
B13: IL6R-BP536/IL6R-L (antibody, human IgG1, kappa)
heavy: B1 heavy with E235D, A269S, P274E, A329G, P398M
light: not shown
notes: copies: 2 + 2
B14: IL6R-BP499/IL6R-L (antibody, human IgG1, kappa)
heavy: B1 heavy with E235D, P274E, P398L
light: not shown
notes: copies: 2 + 2
B15: IL6R-BP438/IL6R-L (antibody, human IgG1, kappa)
heavy: B1 heavy with E235D, I266V, P274E, D298Y, I334T
light: not shown
notes: copies: 2 + 2
B16: IL6R-BP558/IL6R-L (antibody, human IgG1, kappa)
heavy: B1 heavy with A269G, P274D, D298Y
light: not shown
notes: copies: 2 + 2
B17: IL6R-BP912/IL6R-L (antibody, human IgG1, kappa)
heavy: B1 heavy with D239G, I266V, A269S, E270H, G273P, P274E, D298Y
light: not shown
notes: IgG1 type
B18: IL6R-BP121/IL6R-L (antibody, human IgG1, kappa)
heavy: B1 heavy with D239G, I266V, A269S, E270H, G273P, P274E, D298Y, K328Q, R332A
light: not shown
notes: IgG1 type
B19: IL6R-BP136/IL6R-L (antibody, human IgG1, kappa)
heavy: B1 heavy with D239G, I266V, A269S, E270H, G273P, P274E, D298Y, K328A, R332A
light: not shown
notes: IgG1 type
B20: IL6R-BP142/IL6R-L (antibody, human IgG1, kappa)
heavy: B1 heavy with D239G, I266V, A269S, E270H, G273P, P274E, D298Y, K328N, R332A
light: not shown
notes: IgG1 type

Biological target: T5, human FcγRIa extracellular domain with C-terminal His tag (human, UniProt P12314 16-292)
T5 construct: extracellular domain
Assay: SPR (Biacore)

T5 sequence (P12314 16-292): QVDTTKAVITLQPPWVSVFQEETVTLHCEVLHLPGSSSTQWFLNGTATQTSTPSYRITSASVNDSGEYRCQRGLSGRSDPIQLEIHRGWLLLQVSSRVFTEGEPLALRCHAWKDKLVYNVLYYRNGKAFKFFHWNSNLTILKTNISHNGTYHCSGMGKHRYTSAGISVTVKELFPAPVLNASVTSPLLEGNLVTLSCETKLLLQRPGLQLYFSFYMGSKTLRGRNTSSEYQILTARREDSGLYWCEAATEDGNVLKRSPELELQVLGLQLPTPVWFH

Kd | Binder
6 nM | B1
1.2 nM | B2
1.3 nM | B3
1.2 nM | B4
6 nM | B5
2.1 nM | B6
5.3 nM | B7
1.3 nM | B8
2.1 nM | B9
7.7 nM | B10
8 nM | B11
1.2 nM | B12
8.9 nM | B13
1.2 nM | B14

Biological target: T1, human FcγRIIa type R extracellular …
Assay: SPR (Biacore)

Kd | Binder
180 nM | B15
180 nM | B1
57 nM | B2
51 nM | B3
39 nM | B4
330 nM | B16
85 nM | B6
120 nM | B7
43 nM | B8
110 nM | B9
120 nM | B10
470 nM | B12
79 nM | B13
49 nM | B14

Biological target: T2, human FcγRIIa type H extracellular …
Assay: SPR (Biacore)

Kd | Binder
1600 nM | B15
4300 nM | B1
860 nM | B2
930 nM | B3
840 nM | B4
4000 nM | B5
4900 nM | B16
960 nM | B6
2200 nM | B7
870 nM | B8
1300 nM | B9
2600 nM | B10
2300 nM | B11
3700 nM | B12
1300 nM | B13
1000 nM | B14

Biological target: T3, human FcγRIIb extracellular domain with …
Assay: SPR (Biacore)

Kd | Binder
3.5 nM | B1
1.7 nM | B2
1.7 nM | B3
1.2 nM | B4
3.8 nM | B5
9 nM | B16
4.1 nM | B6
3 nM | B7
1 nM | B8
3.7 nM | B9
4.1 nM | B10
18 nM | B12
3 nM | B13
1.5 nM | B14

Biological target: T3, human FcγRIIb extracellular domain with …
Assay: SPR (Biacore), ratio of KDs

KD(IIaH)/KD(IIb) | KD(IIaR)/KD(IIb) | Binder
1240 | 50.6 | B1
503 | 33.2 | B2
564 | 30.8 | B3
730 | 33.8 | B4
236 | 21 | B6
724 | 38.8 | B7
870 | 42.8 | B8
352 | 29.5 | B9
634 | 29.3 | B10
201 | 25.5 | B12
438 | 26.6 | B13
685 | 33.8 | B14

Biological target: T1, human FcγRIIa type R extracellular …
Assay: SPR (Biacore), parent IL6R-B3/IL6R-L

KD(IIaR) parent/KD(IIaR) altered polypeptide | Binder
6.3 | B1
19.4 | B2
21.7 | B3
28.3 | B4
12.9 | B6
9.3 | B7
25.7 | B8
10.1 | B9
9.2 | B10
2.3 | B12
13.9 | B13
22.3 | B14

Biological target: T3, human FcγRIIb extracellular domain with …
Assay: SPR (Biacore), parent IL6R-B3/IL6R-L

KD(IIb) parent/KD(IIb) altered polypeptide | Binder
891 | B1
1810 | B2
1880 | B3
2700 | B4
764 | B6
1020 | B7
3100 | B8
840 | B9
756 | B10
168 | B12
1040 | B13
2120 | B14

Biological target: T4, human FcγRIIb extracellular domain with …
Assay: SPR (Biacore), antibody captured, FcγR as analyte

KD(IIb) of parent polypeptide/KD(IIb) of altered polypeptide | Kd | Binder
2.1 fold vs IL6R-B3/IL6R-L | – | B17
2.8 fold vs IL6R-B3/IL6R-L | – | B18
3.9 fold vs IL6R-B3/IL6R-L | 800 nM | B19
2.6 fold vs IL6R-B3/IL6R-L | – | B20
